Measurements reported in article PMC3013012 (The Journal of Biological Chemistry, 2010).
Where two headings read alike, the source gives them in different places. Square brackets hold non-standard residues; d marks the D form. Ends that are not written are not given here. Lys(Me3) = C[N+](C)(C)CCCC[C@H](N)C(=O)O

What was measured:
[1] = molecular target: T1, Cbx7 chromodomain, Cbx7-(8–62) (human, UniProt O95931 8-62); assay: fluorescence polarisation
T1 sequence: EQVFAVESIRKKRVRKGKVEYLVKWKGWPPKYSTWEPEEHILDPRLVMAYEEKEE

[2] = molecular target: T2, Cbx2 chromodomain, Cbx2-(9–66) (human, UniProt Q14781 9-66); assay: fluorescence polarisation
T2 sequence: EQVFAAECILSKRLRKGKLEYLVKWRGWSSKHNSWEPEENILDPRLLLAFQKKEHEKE

[3] = molecular target: T3, Cbx6 chromodomain, Cbx6-(8–65) (human, UniProt O95503 8-65); assay: fluorescence polarisation
T3 sequence: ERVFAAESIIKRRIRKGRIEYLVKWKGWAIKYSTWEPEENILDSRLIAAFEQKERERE

[4] = molecular target: T4, Cbx4 chromodomain, Cbx4-(8–65) (human, UniProt O00257 8-65); assay: fluorescence polarisation
T4 sequence: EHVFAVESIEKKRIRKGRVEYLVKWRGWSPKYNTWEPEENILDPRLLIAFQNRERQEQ

[5] = molecular target: T5, Cbx8 chromodomain, Cbx8-(8–61) (human, UniProt Q9HC52 8-61); assay: fluorescence polarisation
T5 sequence: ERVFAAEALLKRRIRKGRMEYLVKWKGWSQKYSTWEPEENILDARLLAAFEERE

[6] = molecular target: T1, Cbx7 chromodomain, Cbx7-(8–62)
[7] = molecular target: T5, Cbx8 chromodomain, Cbx8-(8–61)
[8] = molecular target: His6-tagged Cbx3 chromodomain (peptide arrays) (human, UniProt Q13185 29-81); assay: peptide or protein array
His6-tagged Cbx3 chromodomain (peptide arrays), sequence (Q13185 29-81): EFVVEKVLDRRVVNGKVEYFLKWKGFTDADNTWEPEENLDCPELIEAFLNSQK

[9] = molecular target: T6, His6-tagged Cbx7 chromodomain (peptide arrays) (human, UniProt O95931 8-62); assay: peptide or protein array
T6 sequence: T1 sequence

[10] = molecular target: Cbx1 chromodomain, Cbx1-(20–73) (human, UniProt P83916 20-73); assay: fluorescence polarisation
Cbx1 chromodomain, Cbx1-(20–73), sequence (P83916 20-73): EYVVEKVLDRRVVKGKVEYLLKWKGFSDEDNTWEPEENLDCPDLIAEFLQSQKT

[11] = molecular target: Cbx5 chromodomain, Cbx5-(18–75) (human, UniProt P45973 18-75); assay: fluorescence polarisation
Cbx5 chromodomain, Cbx5-(18–75), sequence (P45973 18-75): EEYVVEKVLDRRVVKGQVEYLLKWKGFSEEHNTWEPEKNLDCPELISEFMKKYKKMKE

QLATKAARKSAPATG (trimethyllysine at 27; fluorescein on the N-terminus) [H3K27Me3 peptide (QLATKAARK(me3)SAPATG), fluorescein-labeled]
Kd [1]: 110 µM
Kd [2]: 185 µM
Kd [3]: > 500 µM
Kd [4]: 205 µM
Kd [5]: > 500 µM

RGFAL[Lys(Me3)]STHG [SETDB1 peptide 1165-RGFALKme3STHG]
Kd [6]: 5 µM

HGIAI[Lys(Me3)]STN [SETDB1 peptide HGIAIKme3STN]
Kd [6]: 5 µM
Kd [7]: 37 µM

TKHTAR[Lys(Me3)]STGGKA (also: held on a cellulose membrane through a polyethylglycol linker) [histone H3 residues 3–15, K9me3, Gln-5 to His array peptide]
binding result [8]: binds

ATKAAR[Lys(Me3)]SAPATG (also: held on a cellulose membrane through a polyethylglycol linker) [histone H3 residues 21–33 with trimethylated Lys-27, membrane-immobilized array peptide]
binding result [9]: binds

fluorescein-ARTKQAAR[Lys(Me3)]STGGKA [H3K9Me3T6A peptide (ARTKQAARK(me3)STGGKA), fluorescein-labeled]
Kd [1]: 140 µM
Kd [10]: 45 µM
Kd [4]: 80 µM

TKNTAR[Lys(Me3)]STGGKA (also: held on a cellulose membrane through a polyethylglycol linker) [histone H3 residues 3–15, K9me3, Gln-5 to Asn array peptide]
binding result [8]: binds

TKQTAR[Lys(Me3)]STGGKA (also: held on a cellulose membrane through a polyethylglycol linker) [histone H3 residues 3–15 with trimethylated Lys-9, membrane-immobilized array peptide]
binding result [9]: binds
binding result [8]: binds

TKQVAR[Lys(Me3)]STGGKA (also: held on a cellulose membrane through a polyethylglycol linker) [histone H3 residues 3–15, K9me3, T6V array peptide]
binding result [8]: binds

fluorescein-QLATKTAR[Lys(Me3)]SAPATG [H3K27Me3A24T peptide (QLATKTARK(me3)SAPATG), fluorescein-labeled]
Kd [1]: 210 µM
Kd [2]: 330 µM
Kd [3]: > 500 µM
Kd [4]: 250 µM
Kd [5]: > 500 µM

RQVAV[Lys(Me3)]STR [SETDB1 peptide RQVAVKme3STR]
Kd [6]: 43 µM
Kd [7]: 98 µM

ARTKQTARKSTGGKA (trimethyllysine at 9; fluorescein on the N-terminus) [H3K9Me3 peptide (ARTKQTARK(me3)STGGKA), fluorescein-labeled]
Kd [11]: 30 µM
Kd [10]: 5 µM
Kd [4]: 70 µM

TKCTAR[Lys(Me3)]STGGKA (also: held on a cellulose membrane through a polyethylglycol linker) [histone H3 residues 3–15, K9me3, Gln-5 to Cys array peptide]
binding result [8]: binds
